Measured values reported in the RNAGym collection of RNA variant scans (doi:10.7554/elife.80360).

B1: Hairpin Ribozyme (parent)
chain: GUCCUCUUUCACGUGCGCGUGAAAGAGAGAAGUGAACCAGAGAAACACACGUUGUGGUAUAUUACCUGGUA

Variants of: B1
Assay: self-cleavage, relative activity (ratio to wild type); higher = more cleavage; co-transcriptional

Row | Variant | self-cleavage
1 | GUCCUCUUUCACGUGCGCGUGAAAGAGAGAAGUGAACCAGAGAAACUCACGUUGUGGUAUAUUACCUGGCA [A47U U70C] | 0.0521
2 | GUCCUCUUUCACGUGCGCGUGAAAGAGAGAAGUGAACCAGAGAAACAAACGUUGUGGUAUACUACCUGGUA [C48A U62C] | 0.207
3 | GUCCUCUUUCACGUGCGCGUGAAAGAGAGAAGUGAACCAGAGAAACUCACGUUGUGGUAUAUUACCUGGUA [A47U] | 0.154
4 | GUCCUCUUUCACGUGCGCGUGAAAGAGAGAAGUGAACCAGAGAAACAAACGUUGUGGUAUAUUACCUGGGA [C48A U70G] | 0.144
5 | GUCCUCUUUCACGUGCGCGUGAAAGAGAGAAGUGAACCAGAGAAACAAACGUUGUGGUAUAUUACCUGGAA [C48A U70A] | 0.209
6 | GUCCUCUUUCACGUGCGCGUGAAAGAGAGAAGUGAACCAGAGAAACGCACGUUUUGGUAUAUUACCUGGUA [A47G G54U] | 0.163
7 | GUCCUCUUUCACGUGCGCGUGAAAGAGAGAAGUGAACCAGAGAAACUCACGUUGUGGUAUAUUACCCGGUA [A47U U67C] | 0.0849
8 | GUCCUCUUUCACGUGCGCGUGAAAGAGAGAAGUGAACCAGAGAAACUCACGUUGUGGUAUAUUACCGGGUA [A47U U67G] | 0.185
9 | GUCCUCUUUCACGUGCGCGUGAAAGAGAGAAGUGAACCAGAGAAACUCACGUUGUGGUAUAUUACCUGGUC [A47U A71C] | 0.304
10 | GUCCUCUUUCACGUGCGCGUGAAAGAGAGAAGUGAACCAGAGAAACAGAAGUUGUGGUAUAUUACCUGGUA [C48G C50A] | 0.0785
11 | GUCCUCUUUCACGUGCGCGUGAAAGAGAGAAGUGAACCAGAGAAACAGAGGUUGUGGUAUAUUACCUGGUA [C48G C50G] | 0.137
12 | GUCCUCUUUCACGUGCGCGUGAAAGAGAGAAGUGAACCAGAGAAACAGAUGUUGUGGUAUAUUACCUGGUA [C48G C50U] | 0.177
13 | GUCCUCUUUCACGUGCGCGUGAAAGAGAGAAGUGAACCAGAGAAACAGACGUUGUGGGAUAUUACCUGGUA [C48G U58G] | 0.0532
14 | GUCCUCUUUCACGUGCGCGUGAAAGAGAGAAGUGAACCAGAGAAACAAAUGUUGUGGUAUAUUACCUGGUA [C48A C50U] | 0.131
15 | GUCCUCUUUCACGUGCGCGUGAAAGAGAGAAGUGAACCAGAGAAACAAAAGUUGUGGUAUAUUACCUGGUA [C48A C50A] | 0.188
16 | GUCCUCUUUCACGUGCGCGUGAAAGAGAGAAGUGAACCAGAGAAACAGCCGUUGUGGUAUAUUACCUGGUA [C48G A49C] | 0.223
17 | GUCCUCUUUCACGUGCGCGUGAAAGAGAGAAGUGAACCAGAGAAACAGACGUUGUGGUAUAUUACUUGGUA [C48G C66U] | 0.156
18 | GUCCUCUUUCACGUGCGCGUGAAAGAGAGAAGUGAACCAGAGAAACAGACGUUGUAGUAUAUUACCUGGUA [C48G G56A] | 0.124
19 | GUCCUCUUUCACGUGCGCGUGAAAGAGAGAAGUGAACCAGAGAAACAGACGUUGUCGUAUAUUACCUGGUA [C48G G56C] | 0.922

Row | Variant | self-cleavage
20 | GUCCUCUUUCACGUGCGCGUGAAAGAGAGAAGUGAACCAGAGAAACAGACGUUGUGGUAUAAUACCUGGUA [C48G U62A] | 0.0564
21 | GUCCUCUUUCACGUGCGCGUGAAAGAGAGAAGUGAACCAGAGAAACAAACGUUGAGGUAUAUUACCUGGUA [C48A U55A] | 0.228
22 | GUCCUCUUUCACGUGCGCGUGAAAGAGAGAAGUGAACCAGAGAAACAAACGUUGGGGUAUAUUACCUGGUA [C48A U55G] | 0.251
23 | GUCCUCUUUCACGUGCGCGUGAAAGAGAGAAGUGAACCAGAGAAACAGACGUUGUGGUAUAUUACCUCGUA [C48G G68C] | 0.189
24 | GUCCUCUUUCACGUGCGCGUGAAAGAGAGAAGUGAACCAGAGAAACAAACGUUGUGGUACAUUACCUGGUA [C48A U60C] | 0.208
25 | GUCCUCUUUCACGUGCGCGUGAAAGAGAGAAGUGAACCAGAGAAACAAACGUUGUGGUAUAUUACCUGAUA [C48A G69A] | 0.173
26 | GUCCUCUUUCACGUGCGCGUGAAAGAGAGAAGUGAACCAGAGAAACAAACGUUGUGGUAUAUUACCUGUUA [C48A G69U] | 0.121
27 | GUCCUCUUUCACGUGCGCGUGAAAGAGAGAAGUGAACCAGAGAAACAGACGUUGUGGUGUAUUACCUGGUA [C48G A59G] | 0.129
28 | GUCCUCUUUCACGUGCGCGUGAAAGAGAGAAGUGAACCAGAGAAACUCACGUUGUGGUUUAUUACCUGGUA [A47U A59U] | 0.194
29 | GUCCUCUUUCACGUGCGCGUGAAAGAGAGAAGUGAACCAGAGAAACAGACGUUGUGGUAUAUGACCUGGUA [C48G U63G] | 0.0813
30 | GUCCUCUUUCACGUGCGCGUGAAAGAGAGAAGUGAACCAGAGAAACGCACGUUGUGGUAUAUUACCUGGGA [A47G U70G] | 0.115
31 | GUCCUCUUUCACGUGCGCGUGAAAGAGAGAAGUGAACCAGAGAAACGCACGUUGUGGUAUAUUACCUGGCA [A47G U70C] | 0.1
32 | GUCCUCUUUCACGUGCGCGUGAAAGAGAGAAGUGAACCAGAGAAACAGACAUUGUGGUAUAUUACCUGGUA [C48G G51A] | 0.172
33 | GUCCUCUUUCACGUGCGCGUGAAAGAGAGAAGUGAACCAGAGAAACUCACGUUGUGCUAUAUUACCUGGUA [A47U G57C] | 0.157
34 | GUCCUCUUUCACGUGCGCGUGAAAGAGAGAAGUGAACCAGAGAAACAAACGUCGUGGUAUAUUACCUGGUA [C48A U53C] | 0.18
35 | GUCCUCUUUCACGUGCGCGUGAAAGAGAGAAGUGAACCAGAGAAACAAACGUUGUGUUAUAUUACCUGGUA [C48A G57U] | 0.115
36 | GUCCUCUUUCACGUGCGCGUGAAAGAGAGAAGUGAACCAGAGAAACGCACGUUGUGGAAUAUUACCUGGUA [A47G U58A] | 0.221
37 | GUCCUCUUUCACGUGCGCGUGAAAGAGAGAAGUGAACCAGAGAAACUCACGUUGUAGUAUAUUACCUGGUA [A47U G56A] | 0.187
38 | GUCCUCUUUCACGUGCGCGUGAAAGAGAGAAGUGAACCAGAGAAACUCACGUUGUCGUAUAUUACCUGGUA [A47U G56C] | 0.125
